Target: IEk on the surface of CH27 murine B-cell lymphoma cells (mouse (endogenous in CH27))
Assay: flow cytometry on cells; CH27 cells incubated with 1 mM biotinylated peptide for 20 h at 37 °C, washed, stained with streptavidin-Cy5; occupancy of IEk calculated against cells stained with 14-4-4s-bio and streptavidin-Cy5

Work on “biotinylated ER60 peptide (from UniProt P27773 448-461)” yielded a percent of IEk molecules occupied of 17%.

Reference: paper PMC2253636
